According to patent CN114891108A (SHANGHAI XUNLU BIO TECH CO LTD, dated 2022):

T1: Mouse BCMA/TNFRSF17 Protein, His Tag (mouse, UniProt O88472 1-49)
T1 construct: Bought recombinant protein; also called Mouse-BCMA-his; 鼠的BCMA蛋白
T1 chain (looked up): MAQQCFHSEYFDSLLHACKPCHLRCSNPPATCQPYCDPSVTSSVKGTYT

T2: Biotinylated Human BCMA/TNFRSF17 Protein, His,Avitag (human, UniProt Q02223 1-54, biotinylated (Avitag))
T2 construct: Bought recombinant protein; also called Human BCMA-his-Bio; Human-BCMA-his-Bio
T2 sequence (looked up): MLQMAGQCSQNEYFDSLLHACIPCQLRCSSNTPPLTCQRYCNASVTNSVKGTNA

T3: BCMA on cells (293CT-BCMA, MM.1S) (UniProt Q02223 1-184, limits assumed)
T3 construct: whole, on cells; also called 细胞膜表面天然状态的BCMA
T3 sequence (looked up): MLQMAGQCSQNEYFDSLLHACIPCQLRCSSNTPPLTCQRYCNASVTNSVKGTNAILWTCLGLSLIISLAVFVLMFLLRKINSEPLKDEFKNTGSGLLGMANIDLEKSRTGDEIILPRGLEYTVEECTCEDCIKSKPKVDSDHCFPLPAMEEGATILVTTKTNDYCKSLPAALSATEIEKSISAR

B1: Clone 41 (scFv)
scFv: QSVLTQPPSVSGAPGQTVTISCTGSSSNIGAGYIVNWYQQLPGTAPKLLIYFTGNRPSGVPGRFSGSRSGTSASLAITRLQAEDEADYYCQSFDRSLGGYVFGTATKVTVLGSRGGGGSGGGGSGGGGSLEMAQLQLQESGPGLVKPSETLSLTCTVSGGSISSSSYYWGWIRQPPGKGLEWIGSISYSGSTYYNPSLKSRVTISVDTSKNQFSLKLSSVTAADTAVYYCARDRGDTILDVWGQGTMVTVSS
notes: The fusion to the phage coat protein is not described; also called 噬菌体单克隆Clone 41; Clone 41单链抗体
B2: mAb 41 (Fc fusion)
chain: B1 scFv
notes: also called Clone 41 IgG; 抗BCMA IgG (Clone 41); not shown: Human IgG4 Fc

Key:
[1] = target: T1, Mouse BCMA/TNFRSF17 Protein, His Tag; assay: phage ELISA
[2] = target: T2, Biotinylated Human BCMA/TNFRSF17 …; assay: phage ELISA
[3] = target: T3, BCMA on cells (293CT-BCMA, MM.1S); assay: phage flow cytometry on 293CT-BCMA cells
[4] = target: T3, BCMA on cells (293CT-BCMA, MM.1S); assay: flow cytometry titration on 293CT-BCMA and MM.1S cells

Binder | binding result [1] | binding result [2] | binding result [3] | binding result [4]
B1 | no binding | binds | binds | –
B2 | – | – | – | binds
